Among the data in the supplement of paper PMC10567573 are protein stability index values, retold here.

To fix the notation:
B1: ADAMTS4 (parent)
chain: HVDPEEPWSPCSARFITDFLDNGY
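Further: lentivirally expressed fusions sorted by FACS into six bins by GFP to DsRed ratio, PSI derived from sequencing read proportions per bin multiplied by bin number.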

Variants of B1 are the subject of this data set. As to the kind of experiment: protein stability index of a GFP-peptide fusion (GPS, HEK-293T) (PSI 1-6); higher = more stable. Conditions: c terminus: a fixed tail appended.
In the case of HVDPEEPWSPCSARFITEFLDNGY [D18E], the protein stability index is 1.99. The result for HVDPEEPWSPCSARFITTFLDNGY [D18T] reads 1.65. With HVDPEEPWSPCSARFITNFLDNGY [D18N] the figure was 1.58; with HVDPEEPWSPCSARFITSFLDNGY [D18S], 1.61. On to HVDPEEPWSPCSARFITIFLDNGY [D18I], for which the protein stability index stood at 2.73.

Take HVDPEEPWSPCSARFITQFLDNGY [D18Q]: the protein stability index is 1.67. The result for HVDPEEPWSPCSARFITRFLDNGY [D18R] reads 1.13; that for HVDPEEPWSPCSARFITMFLDNGY [D18M], 2.9; that for HVDPEEPWSPCSARFITWFLDNGY [D18W], 1.53.

As to HVDPEEPWSPCSARFITPFLDNGY [D18P], the protein stability index stood at 2.17. Take HVDPEEPWSPCSARFITVFLDNGY [D18V]: the protein stability index was found to be 2.03. As for HVDPEEPWSPCSARFITCFLDNGY [D18C], the protein stability index was found to be 2.73. The result for HVDPEEPWSPCSARFITHFLDNGY [D18H] reads 1.89; that for HVDPEEPWSPCSARFITFFLDNGY [D18F], 1.6. With HVDPEEPWSPCSARFITGFLDNGY [D18G] the figure was 1.59; with HVDPEEPWSPCSARFITKFLDNGY [D18K], 2.02.

Take HVDPEEPWSPCSARFITAFLDNGY [D18A]: the protein stability index was 2.2. For the variant HVDPEEPWSPCSARFITYFLDNGY [D18Y], the protein stability index came out at 1.94.

Take HVDPEEPWSPCSARFITDFLDNKY [G23K]: the protein stability index amounted to 2.06. The result for HVDPEEPWSPCSARFITDFLDNWY [G23W] reads 1.82. Consider HVDPEEPWSPCSARFITDFLDNCY [G23C], for which the protein stability index was 2.17. With HVDPEEPWSPCSARFITDFLDNTY [G23T] the figure was 2.22; with HVDPEEPWSPCSARFITDFLDNAY [G23A], 1.74; with HVDPEEPWSPCSARFITDFLDNIY [G23I], 2.05. With HVDPEEPWSPCSARFITDFLDNMY [G23M] the figure was 1.69.

Turning to HVDPEEPWSPCSARFITDFLDNPY [G23P], the protein stability index came to 2.1. The result for HVDPEEPWSPCSARFITDFLDNEY [G23E] reads 1.96. The result for HVDPEEPWSPCSARFITDFLDNLY [G23L] reads 1.82.

As to HVDPEEPWSPCSARFITDFLDNSY [G23S], the protein stability index was found to be 1.71. With HVDPEEPWSPCSARFITDFLDNHY [G23H] the figure was 2.12. HVDPEEPWSPCSARFITDFLDNQY [G23Q]: the protein stability index worked out at 1.65.

As to HVDPEEPWSPCSARFITDFLDNDY [G23D], the protein stability index turned out to be 2.24. The result for HVDPEEPWSPCSARFITDFLDNYY [G23Y] reads 2.02; that for HVDPEEPWSPCSARFITDFLDNRY [G23R], 1.53; that for HVDPEEPWSPCSARFITDFLDNVY [G23V], 2.27. In the case of HVDPEEPWSPCSARFITDFLDNFY [G23F], the protein stability index amounted to 2.

With HVDPEEPWSPCSARFITDFLDNNY [G23N], the protein stability index came to 1.61. The result for HVDPEEPWSPCSARFITDFLFNGY [D21F] reads 2.12; that for HVDPEEPWSPCSARFITDFLENGY [D21E], 1.71. With HVDPEEPWSPCSARFITDFLTNGY [D21T] the figure was 1.96.

Consider HVDPEEPWSPCSARFITDFLPNGY [D21P], for which the protein stability index was 1.96. In the case of HVDPEEPWSPCSARFITDFLANGY [D21A], the protein stability index was 1.35.

Turning to HVDPEEPWSPCSARFITDFLINGY [D21I], the protein stability index was found to be 2.69.

Consider HVDPEEPWSPCSARFITDFLRNGY [D21R], for which the protein stability index worked out at 1.87. The result for HVDPEEPWSPCSARFITDFLMNGY [D21M] reads 1.77; that for HVDPEEPWSPCSARFITDFLGNGY [D21G], 1.76; that for HVDPEEPWSPCSARFITDFLYNGY [D21Y], 1.33. With HVDPEEPWSPCSARFITDFLCNGY [D21C] the figure was 1.95.

As to HVDPEEPWSPCSARFITDFLQNGY [D21Q], the protein stability index came out at 2.21. With HVDPEEPWSPCSARFITDFLKNGY [D21K] the figure was 1.88; with HVDPEEPWSPCSARFITDFLLNGY [D21L], 1.6. The result for HVDPEEPWSPCSARFITDFLVNGY [D21V] reads 2.2.

HVDPEEPWSPCSARFITDFLNNGY [D21N]: the protein stability index amounted to 1.84.

Turning to HVDPEEPWSPCSARFITDFLWNGY [D21W], the protein stability index stood at 2.42. With HVDPEEPWSPCSARFITDFLSNGY [D21S] the figure was 1.73; with HVDPEEPWSPCSARFITDFLHNGY [D21H], 1.43; with HVDPEEPWSPCSARFITDFGDNGY [L20G], 2.31. The result for HVDPEEPWSPCSARFITDFNDNGY [L20N] reads 2.39; that for HVDPEEPWSPCSARFITDFIDNGY [L20I], 1.78; that for HVDPEEPWSPCSARFITDFADNGY [L20A], 1.96. With HVDPEEPWSPCSARFITDFCDNGY [L20C] the figure was 1.52. Turning to HVDPEEPWSPCSARFITDFMDNGY [L20M], the protein stability index is 1.82. With HVDPEEPWSPCSARFITDFSDNGY [L20S] the figure was 1.82; with HVDPEEPWSPCSARFITDFFDNGY [L20F], 2.04. On to HVDPEEPWSPCSARFITDFDDNGY [L20D], for which the protein stability index was determined as 2.22. With HVDPEEPWSPCSARFITDFPDNGY [L20P] the figure was 2.15. The result for HVDPEEPWSPCSARFITDFWDNGY [L20W] reads 1.59; that for HVDPEEPWSPCSARFITDFHDNGY [L20H], 1.92; that for HVDPEEPWSPCSARFITDFQDNGY [L20Q], 2.28. With HVDPEEPWSPCSARFITDFVDNGY [L20V] the figure was 1.92; with HVDPEEPWSPCSARFITDFTDNGY [L20T], 2.13; with HVDPEEPWSPCSARFITDFKDNGY [L20K], 1.93. HVDPEEPWSPCSARFITDFEDNGY [L20E]: the protein stability index was 2.24. With HVDPEEPWSPCSARFITDFYDNGY [L20Y] the figure was 2.14; with HVDPEEPWSPCSARFITDFRDNGY [L20R], 2.3. As to HVDPEEPWSPCSARFITDFLDNGN [Y24N], the protein stability index was determined as 2.21. The result for HVDPEEPWSPCSARFITDFLDNGV [Y24V] reads 1.73; that for HVDPEEPWSPCSARFITDFLDNGH [Y24H], 1.9; that for HVDPEEPWSPCSARFITDFLDNGE [Y24E], 2.01.

Take HVDPEEPWSPCSARFITDFLDNGC [Y24C]: the protein stability index turned out to be 1.39.

With HVDPEEPWSPCSARFITDFLDNGI [Y24I], the protein stability index worked out at 2.05. The result for HVDPEEPWSPCSARFITDFLDNGL [Y24L] reads 1.84; that for HVDPEEPWSPCSARFITDFLDNGA [Y24A], 2.32. With HVDPEEPWSPCSARFITDFLDNGS [Y24S] the figure was 1.81; with HVDPEEPWSPCSARFITDFLDNGK [Y24K], 1.94; with HVDPEEPWSPCSARFITDFLDNGG [Y24G], 2.36. For the variant HVDPEEPWSPCSARFITDFLDNGR [Y24R], the protein stability index is 1.96. With HVDPEEPWSPCSARFITDFLDNGT [Y24T] the figure was 2. The result for HVDPEEPWSPCSARFITDFLDNGF [Y24F] reads 2.17; that for HVDPEEPWSPCSARFITDFLDNGP [Y24P], 1.92; that for HVDPEEPWSPCSARFITDFLDNGW [Y24W], 1.64. Take HVDPEEPWSPCSARFITDFLDNGQ [Y24Q]: the protein stability index was 2.1. With HVDPEEPWSPCSARFITDFLDNGD [Y24D] the figure was 1.75; with HVDPEEPWSPCSARFITDFLDNGM [Y24M], 2.07.
